# In patent publication US20040138134A1:
# Target: natriuretic peptide receptor on C3H10T1/2 cells
# Experiment: cell-based or functional assay
row,"% relative binding (cGMP, Biotrak EIA, peptide at 10^-6 M)",Binder
1,66.2%,CFGLKLDRIGSHSGLGC [CNP variant SEQ ID NO:66]
2,14.2%,CFGLKLDRLGSMSGLGC [CNP variant SEQ ID NO:51]
3,74.1%,CFGLKLDRIGTMSGLGC [CNP variant SEQ ID NO:56]
4,66.9%,CFGLKLDRIGSKSGLGC [CNP variant SEQ ID NO:67]
5,49.2%,CFGLKLDRIGSMSKLGC [CNP variant SEQ ID NO:60]
6,29.7%,CFGLLLDRIGSMSGLGC [CNP variant SEQ ID NO:43]
7,5.74%,CVGLKLDRIGSMSGLGC [CNP variant SEQ ID NO:32]
8,-17.1%,CFGLKLQRIGSMSGLGC [CNP variant SEQ ID NO:36]
9,66.7%,CFGLKVDRIGSMSGLGC [CNP variant SEQ ID NO:47]
10,27.8%,CFGLKLDRIGGMSGLGC [CNP variant SEQ ID NO:55]
11,62.5%,CFGLKLDRIGSSSGLGC [CNP variant SEQ ID NO:68]
12,6.25%,CLGLKLDRIGSMSGLGC [CNP variant SEQ ID NO:29]
13,-10.1%,CFGLKLDRIGSMSGGGC [CNP variant SEQ ID NO:64]
14,-1.34%,CMGLKLDRIGSMSGLGC [CNP variant SEQ ID NO:30]
15,5.42%,CFGLMLDRIGSMSGLGC [CNP variant SEQ ID NO:44]
16,-5.85%,CAGLKLARIGSMSGLGC [CNP variant SEQ ID NO:24]
17,17.2%,CFGLKLNRIGSMSGLGC [CNP variant SEQ ID NO:37]
18,53.6%,CFGLKLDRIGSMSALGC [CNP variant SEQ ID NO:58]
19,54.5%,CFGLKLDRIGAMSGLGC [CNP variant SEQ ID NO:54]
20,62.1%,CFGLKLDRIGSGSGLGC [CNP variant SEQ ID NO:69]
21,15.3%,CFGLKLDRIGSMSLLGC [CNP variant SEQ ID NO:59]
22,-10.4%,CAGLKLARIGSASGLGC [CNP variant SEQ ID NO:27]
23,5.7%,CHGLKLDRIGSMSGLGC [CNP variant SEQ ID NO:33]

row,"% relative binding (cGMP, Biotrak EIA, peptide at 10^-6 M)",Binder
1,64.2%,CFGVKLDRIGSMSGLGC [CNP variant SEQ ID NO:42]
2,27.4%,CFGLKLDRIGNMSGLGC [CNP variant SEQ ID NO:57]
3,47.4%,CFGIKLDRIGSMSGLGC [CNP variant SEQ ID NO:41]
4,66.5%,CFGLKLDRIGSWSGLGC [CNP variant SEQ ID NO:65]
5,13.9%,CIGLKLDRIGSMSGLGC [CNP variant SEQ ID NO:28]
6,13.5%,CFGLKLDHIGSMSGLGC [CNP variant SEQ ID NO:48]
7,21.5%,CFGLKLDKIGSMSGLGC [CNP variant SEQ ID NO:49]
8,-1.95%,CFGLKLDRTGSMSGLGC [CNP variant SEQ ID NO:53]
9,7.23%,CFGLKLIRIGSMSGLGC [CNP variant SEQ ID NO:38]
10,51.3%,CFGLKLDRIGSMSGMGC [CNP variant SEQ ID NO:62]
11,12%,CFGLKLDQIGSMSGLGC [CNP variant SEQ ID NO:50]
12,20.2%,CFGAKLDRIGSMSGLGC [CNP variant SEQ ID NO:40]
13,-6.9%,CTGLKLDRIGSMSGLGC [CNP variant SEQ ID NO:34]
14,11.3%,CFGLKADRIGSMSGLGC [CNP variant SEQ ID NO:45]
15,7.78%,CFGLKLMRIGSMSGLGC [CNP variant SEQ ID NO:39]
16,-3.47%,CFGLKLDRIGSMSGQGC [CNP variant SEQ ID NO:61]
17,5.75%,CFGLKLARIGSASGLGC [CNP variant SEQ ID NO:26]
18,27.1%,CFGLKLDRVGSMSGLGC [CNP variant SEQ ID NO:52]
19,88.1%,CFGLKIDRIGSMSGLGC [CNP variant SEQ ID NO:46]
20,-10.8%,CWGLKLDRIGSMSGLGC [CNP variant SEQ ID NO:31]
21,-1.11%,CFGLKLDRIGSMSGAGC [CNP variant SEQ ID NO:63]
22,9.45%,CFGLKLERIGSMSGLGC [CNP variant SEQ ID NO:35]
